Laboratory results reported in the nanobody polyreactivity screen of Harvey et al. (2022).

Test: yeast display, Sf9 membrane polyspecificity reagent, FACS + sequencing; frameworks hold sequencing errors
In short: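 A synthetic nanobody library was expressed on Saccharomyces cerevisiae BJ5465 by galactose induction for 36–48 hours. The library was stained for 1 hour at 4 °C with 10% biotinylated, detergent-solubilized Sf9 membrane reagent and enriched with streptavidin microbeads before FACS. Low and high (top ~1%) gates were set on anti-HA fluorescence for expression and streptavidin fluorescence for reagent binding, and each polyreactivity label reflects the gate of origin.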

Row | Sequence | polyreactivity (PSR sort gate)
1 | QVQLVESGGGLVQAGGSLRLSCAASGFIFHLNAMGWYRQAPGKERELVAAIRSSGGSTYYADSVKGRFTISRDIAKNTVYFQMISMKREDTAVYYCAARGSSGLTRRGYYWGQGTQVNVSS | high polyreactivity
2 | QVQLVESGGGLVQAGGSLRLSCAASGFIFHLYGMGWYRQATGKERELVAAISSGGRTYYADSVKGRFTISRDNAKNTVYLQMNSLKPEDTAVYYCAVYVAYLYSYYYWGQGTQVTVSS | low polyreactivity
3 | QVQLVESGGGLVQAGGSLRLSCAASGFIFHRNAMGWYRPAPGKERELVASITKRGGNTYYADSVKGRFTISRDNAKNTVYLQMNSLKPEDTAVYYCATQLWGWDWKRDYWGQGTQVTVSS | high polyreactivity
4 | QVQLVESGGGLVQAGGSLRLSCAASGFIFHYYAMGRYRQAPGKERELVAAISWNGGSTNYSDSVKGRFTISRDNAKNTVYLQMNSLKPEDTAVYYCATTDPYYDVDYWGQGTQVTVSS | low polyreactivity
5 | QVQLVESGGGLVQAGGSLRLSCAASGFIFIGNTMGWYRQAPGKDRELVAAIRWSGGSTYYADSVKGRFTISRDNAKNTVYLQMNSLKPEDTAVYYCAARRWSKTRYYYWGQGTQVTVSS | high polyreactivity
6 | QVQLVESGGGLVQAGGSLRLSCAASGFIFIHYAMGWYRQAPGKERELVAAINRRGSRTYYADSVKGRFTISRDNAKNTVYLQMNSLKPEDSAVYYCAAGSRTEYDYWGQGSQVTVSS | high polyreactivity
7 | QVQLVESGGGLVQAGGSLRLSCAASGFIFIKYAMGWYRQAPGKERELVAAISSSGGSTYYADSVKGRFTISRDNAKNTVYLQMNSLKPEDTAVYYCAARTYRGLAYDYWGQGTQVTVSS | high polyreactivity
8 | QVQLVESGGGLVQAGGSLRLSCAASGFIFIPYAKGWYRQAPGKERELVAAISVSDGTTYYADSVKGRFTISRDNAKNTVYFQMNSLKPEDTAVDYCAARRRAQQGTRDHDYWGQGTQVTVSS | high polyreactivity
9 | QVQLVESGGGLVQAGGSLRLSCAASGFIFIRNAMGWYRQAPGKQRELVATIRYSGGNTYYADSVKGRFTISRDNAKNTVYLQMNSLNPEDTAVYYCAAGSGYWGRSPTRCGQGGYWGQGTQVTVSS | high polyreactivity
10 | QVQLVESGGGLVQAGGSLRLSCAASGFIFIYDMGWYRQAPGKERELVAAITSSDGSTYYADSVKGRFTISRDNAKNTVYLQMNSLKPEDTAVYYCNAKYPWGNYNSVSYDYWGQGTQVTVSS | high polyreactivity
11 | QVQLVESGGGLVQAGGSLRLSCAASGFIFKGYAMGWYRQAPGKERELVATINWSGGRTYYADSVKGRFTISRDNAKNTVYLQMNSLKPEDTAVYYCNVQVGTYAWWYRVGSWYDYWGQGTQVTVSS | high polyreactivity
12 | QVQLVESGGGLVQAGGSLRLSCAASGFIFKHYAMGWYRQAPGKERELVAAITSSGGNTYYADSVKGRFTISRDNAKNTVYLQMNSLKPEDTAVYYCNARFRTLYWGQGTQVTVSS | high polyreactivity
13 | QVQLVESGGGLVQAGGSLRLSCAASGFIFKLNAMGWYRQAPGKERELVATITRGGDTKYADSVKGRFTISRDNAKNTVYLQMNSLKPEDTAVYYCAAGYPYSYRDYYYWGQGTQVTVSS | high polyreactivity
14 | QVQLVESGGGLVQAGGSLRLSCAASGFIFKQYAMGWYRQAPGKERELVAAISWTGGSTYYADSVKGRFTISRDNAKNTVYLQMNSLKPEDTAVYYCAAKRRTRQSYYTEYYWGQGTQVTVSS | high polyreactivity
15 | QVQLVESGGGLVQAGGSLRLSCAASGFIFKRYAMGWYRQAPGKERELVAPITSNGGRTYYADSVKGRFTISRDNAKNTVYLQMNSLKPEHTAVYYCARDSQYYEQDDYWGQGTQVTVSS | high polyreactivity
16 | QVQLVESGGGLVQAGGSLRLSCAASGFIFKRYAMGWYRQAPGKVRELGAAITGSGGSTYYADSVKGRFTISRDNAKNTVYLQMNSLKPEDTAVYYCARGNGGSLDYWGQGTQVTVSS | high polyreactivity
17 | QVQLVESGGGLVQAGGSLRLSCAASGFIFKSNGMGRYRPEPGKERELVSAIRRSGGSTYYADSVKGRFSISRDYAKNTFYLQMNSLKPEVTAVYYCGIRRGVYTHWYDYWGQGTQVTVSS | high polyreactivity
18 | QVQLVESGGGLVQAGGSLRLSCAASGFIFKWYAMGWYRQAPGKERELVAAISTSGGSTYYADSVKGRFTISRDNAKNTVYLQMNSLKPEDTAVYYCAVLVGRLVWSYNHWGQGTQVTVSS | high polyreactivity
19 | QVQLVESGGGLVQAGGSLRLSCAASGFIFKYYAMGWYRQAPGKERELVASISSYGSSTYYADSVKGRFTSSRDSAKNTVYLQLNSVKPEDTAVYYCAAPYNFWNFFDLIYVWDGYDYWGQGTQVTVSS | low polyreactivity
20 | QVQLVESGGGLVQAGGSLRLSCAASGFIFLFNAMGWYRQAPGNESELVAAIYDDGSTYYADSVKGRFTLSLDNAKNTVYLHMNSVKPEDTAVYYCAAPRRGRWIRGYLGQGTQVTVSS | high polyreactivity
21 | QVQLVESGGGLVQAGGSLRLSCAASGFIFLGNVMGWYRQAPGKERELVAAINWSDGSTYYADSVKGRFTISRDNAKNTVYLQMNSLKPEDTAVYYCNVDAGVEGGTVDYWGQGTQVTVSS | low polyreactivity
22 | QVQLVESGGGLVQAGGSLRLSCAASGFIFLGYAMGWYRQAPGKERELVAAISSDSDTNYADSVKGRFTISRDNAKNTVFLQMNSLKPEDTAVYYCNADIDSYREMDYWGQGTLVTVSS | low polyreactivity

Row | Sequence | polyreactivity (PSR sort gate)
23 | QVQLVESGGGLVQAGGSLRLSCAASGFIFLKYAMGWYRQAPGKERELVASITSTGGSTYYADSVKGRFTISRDNAKNTVYLQMNSQKPEDTAVYYCARDTVPSSDPWYYAWGGFEFDYWGQGTQVTVSS | low polyreactivity
24 | QVQLVESGGGLVQAGGSLRLSCAASGFIFLNYAMGWYRQAPGKERELVAAITSGGNTTYADSVKGRFTISRDNAKNTVYLQMNSLKPEDTAVYYCAADGWRAGPGDYWGQGTQVIVSS | low polyreactivity
25 | QVQLVESGGGLVQAGGSLRLSCAASGFIFLPYAMGWYRQAPGKERELVAAITRGGRTYYADSVKGRFTISRDNAKNTVYLQMNSLKPEDTAVYYCAATTYLVWGYNYWGQGTQVTVSS | low polyreactivity
26 | QVQLVESGGGLVQAGGSLRLSCAASGFIFLQYVMGWYRQAPGKERELVAAITSGGSTYYADSVKGRFTISRDNAKNTVYLQMNSLKPEDTAVYFCATDVADNTFYALYGYDYWGQGTQVTVSS | low polyreactivity
27 | QVQLVESGGGLVQAGGSLRLSCAASGFIFLRYGMGWYRQAPGKERELVASIDSTGGSTYADSVKGRFTISRDNAKNTVYLQMNSLKPEDTAVYYCAAAYYIVSQRDYWGQGTQVTVSS | low polyreactivity
28 | QVQLVESGGGLVQAGGSLRLSCAASGFIFLSYAMGWYRPAPGKERELVAAISGRGGSTYYADSVKGRFTISRDNAKNTVYLQMNSLKPEDTAVYYCAARLYRYNYDYWGQGTQVTVSS | high polyreactivity
29 | QVQLVESGGGLVQAGGSLRLSCAASGFIFLVNAMGWYRGAPGKERELVAAISKSTGGTYYADSVKGRFTISRDNAKNTVYLQMNSLKPEDTAVYYCAADEVYPVQRDMDYWGQGTQVTVSS | low polyreactivity
30 | QVQLVESGGGLVQAGGSLRLSCAASGFIFLYNVMGWYRQAPGKERELVAAISWRGGTYYAHSVKGRFTISRDNAKNTVYLQMNSLKPEDTAVYYCAKKQRYYGRMDYWGQGTQVTVSS | high polyreactivity
31 | QVQLVESGGGLVQAGGSLRLSCAASGFIFLYYAMGWYRQAPGKERELVAAISNGGSTYYADSVKGRFTISRDNAKNTVYLQMNSLKPEDTAVYYCAARYGYRYTLKYGYWGQGTQVTVSS | high polyreactivity
32 | QVQLVESGGGLVQAGGSLRLSCAASGFIFNAYTMGWYRKAPGKERELFAAISRRGSSTYYADSVKGRFTISRDNAMNTVYLQMNSLKPEDTAVYYCNTRLYARDDSDFDYWGQGPQVTVSS | high polyreactivity
33 | QVQLVESGGGLVQAGGSLRLSCAASGFIFNIYAMGWYRQAPGKERELVAAITFSGGSTYYADSVKGRFTISRDNAKNTVYLQMNSLKPEDTAVYYCAADYLSEYTTYDYWGQGTQVTVSS | low polyreactivity
34 | QVQLVESGGGLVQAGGSLRLSCAASGFIFNRYAMGWYRQAPGKERELVAAISFSGGSTYYADSVKGRFTISRDNAKNTVYLQMNSLKPEDTAVYYCAASWYRYGYWGQGTQVTVSS | high polyreactivity
35 | QVQLVESGGGLVQAGGSLRLSCAASGFIFNRYAMGWYRQAPGKERELVADITGGSTYYADSVKGRFTISRDNAKNTVYLQMNSQKPEDTEVYYCAADRYGFYLESDYWGQGTQVTVSS | low polyreactivity
36 | QVQLVESGGGLVQAGGSLRLSCAASGFIFNTMGWYRQARGKERELVARITRGGSTDYADSVKGRFTISRDNAKNTVYLQMNSLKPEDTAFYYCAAAIGHFERFYWGQGTQVTVSS | low polyreactivity
37 | QVQLVESGGGLVQAGGSLRLSCAASGFIFNYNAMGWYRQAPGKERELVAAISGTGVRTYYADSVKGRFTISRDNAKNTVYLQMNRLKPEDTAVYYCNAYYGYIPVSGYRNDYWGQGTQVTVSS | low polyreactivity
38 | QVQLVESGGGLVQAGGSLRLSCAASGFIFNYNTMGWYRQAPGKERELVAAISFSGGSTYYADSVKGRFTISRDNAKNTVYLQMNSLKPEDTAVYYCATRNGRQYSVSYRYYYWGQGTQVTVSS | low polyreactivity
39 | QVQLVESGGGLVQAGGSLRLSCAASGFIFPAYAMGWYRQAPGKERELVAGITSRGGSTYYADSVKGRFTISRDNAKNTVYLQMNSLKPEDTAVYYCAKPYHWPWTRFDYWGQGTQVTVSS | low polyreactivity
40 | QVQLVESGGGLVQAGGSLRLSCAASGFIFPDYAMGWSRQAPGKERELVAAISKRGGSTYYADSVKGRFTISRDNAKNTVYLQMNSLKPEDTAVYYCAAVTSVNPSVFNGNYWGQGTHVTVSS | low polyreactivity
41 | QVQLVESGGGLVQAGGSLRLSCAASGFIFPLYTMGWYRQAPGKERELVAAITCSGGSTYYADSVKGGFTISRDNAKNTVYLQMNSLKPEDTAVYYCAKDYTYGMDWGQGTQVTVSS | low polyreactivity
42 | QVQLVESGGGLVQAGGSLRLSCAASGFIFPNYAMGWYRQAPGKEREFVASISWSGGSTYYADSVKGRFTISRDNAKNTVYLQMNSLKPEDTEVYYCNAVAFFNHGAGEDYWGQGTQVTVSS | high polyreactivity
43 | QVQLVESGGGLVQAGGSLRLSCAASGFIFPQYAMGWYRQAPGKERELVAAISTGGGSTYYADSVKGRFTISRDNAKNTVYLQMNSLKPEDTAVYYCAKYVYRFARYNLDYWGQGTQVTVSS | high polyreactivity
